# Laboratory results reported in patent US20260104424A1, “METHODS, SYSTEMS AND KITS FOR IDENTIFYING BIOACTIVE COMPOUNDS AND THERAPEUTIC METHODS AND COMPOSITIONS” (priority 2022, published 2026).
# Entries after “also recorded” stand apart in the source; their conditions may differ.
# Columns and labels:
# CXCR2 = biological target: T1, CXCR2 (Homo sapiens, UniProt P25025); test: M13 phage binding and screening against HEK293T cells overexpressing CXCR2; settings: negative control protein on M13 phage
# T1 sequence (P25025 1-360): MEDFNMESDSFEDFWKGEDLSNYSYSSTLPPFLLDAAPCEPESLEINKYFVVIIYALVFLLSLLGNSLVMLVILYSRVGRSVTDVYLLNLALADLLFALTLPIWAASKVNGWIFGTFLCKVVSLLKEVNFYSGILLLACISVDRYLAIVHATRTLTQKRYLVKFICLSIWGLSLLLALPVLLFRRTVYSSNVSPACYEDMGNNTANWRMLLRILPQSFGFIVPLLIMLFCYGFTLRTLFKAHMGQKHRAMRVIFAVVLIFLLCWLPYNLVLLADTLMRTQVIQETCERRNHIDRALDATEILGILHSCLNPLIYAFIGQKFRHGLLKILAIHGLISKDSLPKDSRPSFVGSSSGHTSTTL
# EGFR = biological target: T2, EGFR (Homo sapiens, UniProt P00533); test: Single-round M13 phage library screening against EGFR (Ig-EGFR beads, HEK293T cells overexpressing EGFR); assay type: binding; settings: for identification as hit in screen against Ig-EGFR: AT, MV and secretome libraries, versus Isotype Ig, triplicate; for identification as hit in secretome library screen: beads coated with Ig-EGFR and HEK293T cells overexpressing EGFR
# T2 construct: representing the extracellular domain of the target receptor fuse to the Fc region of immunoglobulin G; purchased R&D Systems 344-ER
# Protocol: For the phage immunoprecipitation-based ligand discovery, 1 μg of EGFR-Fc (R&D Systems Cat No. 344-ER) and Etanercept (Mippipore Sigma Cat No. 185243-69-0) chimera proteins, representing the extracellular domain of the target receptor fuse to the Fc region of immunoglobulin G, was incubated with the pre-blocked phage library overnight at 4° C. The following day, 20 μL of protein G beads (ThermoFisher Cat No. 10009D) were added to the phage-chimera mixture and rotated for 4 hours at 4° C. to immunocapture (IP) all chimeras. The beads were then washed three times with PBS containing 0.01% NP-40 and stored in −80° C. before sequencing.
# MrgprX4 = biological target: T3, MrgprX4 (Homo sapiens, UniProt Q96LA9); test: MrgprX4 calcium signaling assay; assay type: cell-based; design: activation of MrgprX4 (agonist activity): dose or concentration left out as unconfirmed
# T3 construct: GFP; expressed in transfected cells; host or cells: HEK293-MrgprX4-GFP
# Protocol: The HEK293-MrgprX4-GFP and HEK293 cell lines were dissociated with 0.25% Trypsin (Gibco, Cat No. 25200-056) and collected after 1-2 minutes incubation. The harvested cells were then seeded at a density of 2.5E+04 cells/well in a 96-well half-area flat clear bottom black plate (Greiner Bio-One, Cat No. 675090) that was pre-treated with 0.1 mg/ml poly-D-lysine. The following day, cells were stained with FLIPR Calcium 5 dye (Molecular Devices, Cat No. R8186) in a loading buffer composed of Hanks' balanced salt solution (HBSS) with 20 mM HEPES, adjusted to pH 7.4. After a 30-minute incubation period at 37° C., TFPI (Acro Biosystems Cat No. TFI-H5226) was introduced, and the cells were incubated for an additional hour at 37° C. Subsequently, UDCA or the buffer control were automatically dispensed into the wells, which were immediately imaged using the Flexstation 3 system (Molecular Devices).
# T3 sequence (Q96LA9 whole entry): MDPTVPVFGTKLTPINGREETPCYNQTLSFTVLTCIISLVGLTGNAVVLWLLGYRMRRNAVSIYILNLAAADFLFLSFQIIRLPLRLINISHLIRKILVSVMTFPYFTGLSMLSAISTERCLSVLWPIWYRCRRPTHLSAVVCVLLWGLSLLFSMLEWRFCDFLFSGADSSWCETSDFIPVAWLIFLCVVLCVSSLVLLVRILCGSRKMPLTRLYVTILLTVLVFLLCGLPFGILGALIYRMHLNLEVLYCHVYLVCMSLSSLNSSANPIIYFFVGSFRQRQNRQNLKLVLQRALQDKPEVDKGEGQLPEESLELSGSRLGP
substance,measurement,setting,value
$-Lactoglobulin: negative control protein displayed on phage in the CXCR2 binding test,non-specific binding to HEK293T-CXCR2 cells,CXCR2,low non-specific binding
betacellulin [BTC],identification as hit in screen against Ig-EGFR,EGFR,rediscovered; also recorded: identified
same,identification as hit in secretome library screen,EGFR,robustly identified
heparin binding EGF-like growth factor [HBEGF],identification as hit in screen against Ig-EGFR,EGFR,rediscovered
same,identification as hit in screen against Ig-EGFR,EGFR; listed as HB-EGF,identified
same,identification as hit in secretome library screen,EGFR,robustly identified
"osteoprotegerin [OPG, reference compound]",inhibitory activity on MrgprX4,"MrgprX4; negative control protein, 1 uM (n=4)",no obvious inhibitory activity
tissue factor pathway inhibitor [TFPI],activation of MrgprX4 (agonist activity),MrgprX4,does not activate
same,inhibition of activation by UDCA,"MrgprX4; UDCA (EC80), TFPI at 1 and 0.3 uM, n=7",inhibiting the activation of UDCA
same,concentrations down to which UDCA-induced activation of MrgprX4 was effectively inhibited,MrgprX4; calcium-signaling assay,0.3 µM
same,concentration at which MrgprX4 activation was inhibited,MrgprX4; in the presence of the MrgprX4 activator UDCA,300 nM
transforming growth factor-A [TGFA],identification as hit in screen against Ig-EGFR,EGFR,rediscovered
same,identification as hit in screen against Ig-EGFR,EGFR; listed as TGFa,identified
same,identification as hit in secretome library screen,EGFR,robustly identified
